Source: publication PMC10273338

Molecular target: BAG3 (Bcl-2 associated athanogene protein 3) (human) (UniProt O95817)
Test: SPR; BIACORE X; BAG3 amine-coupled to a CM5 chip (3400 RU); running buffer 10 mM HEPES pH 7.4, 150 mM NaCl, 3 mM EDTA, 0.005% P20; 10 uL/min; Langmuir 1:1 fit

Sequence of BAG3 (Bcl-2 associated athanogene protein 3), O95817 1-575 (natural protein; other documents disagree on this pair) (O95817 whole entry): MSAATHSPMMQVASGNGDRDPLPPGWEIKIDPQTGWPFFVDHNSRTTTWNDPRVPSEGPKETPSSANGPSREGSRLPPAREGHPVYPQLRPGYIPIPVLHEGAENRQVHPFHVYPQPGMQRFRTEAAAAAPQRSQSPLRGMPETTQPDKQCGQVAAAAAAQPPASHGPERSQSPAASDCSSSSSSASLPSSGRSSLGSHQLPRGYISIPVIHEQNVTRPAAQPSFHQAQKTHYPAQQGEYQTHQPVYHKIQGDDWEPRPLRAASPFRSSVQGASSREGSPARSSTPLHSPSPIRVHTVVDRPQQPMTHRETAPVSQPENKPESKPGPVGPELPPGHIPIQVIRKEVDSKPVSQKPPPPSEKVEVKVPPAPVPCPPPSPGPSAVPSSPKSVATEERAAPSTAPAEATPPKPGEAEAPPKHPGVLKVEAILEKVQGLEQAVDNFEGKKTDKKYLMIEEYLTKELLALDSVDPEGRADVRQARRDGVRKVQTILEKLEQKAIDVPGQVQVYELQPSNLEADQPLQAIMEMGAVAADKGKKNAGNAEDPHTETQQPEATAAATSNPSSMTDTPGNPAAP

Ka: 5.3e+07 M⁻¹
Kd: 0.019 µM
koff: 0.0003 s⁻¹
kon: 16000 M⁻¹ s⁻¹
Substance: BAG3 (Bcl-2 associated athanogene protein 3), O95817 1-575 (natural protein; other documents disagree on this pair)
